According to patent US20220048967A1 (published 2022):
Positions count from the first letter of the chain named. Numbered stars: 1 amine (or outer) side, 2 acyl side, 3 side chain; on linkers, the order of the positions; unused ones are H or OH. Square brackets hold non-standard residues; d marks the D form. Side chains are listed from the residue outwards. Ends that are not written are not given here. * marks the point of attachment. C20 diacid = O=C(O)CCCCCCCCCCCCCCCCCCC(=O)*; C18 diacid = O=C(O)CCCCCCCCCCCCCCCCC(=O)*; γGlu = O=C(O)[C@H](CCC(=O)[*:2])N[*:1]; AEEA = NCCOCCOCC(=O)O; Aib = CC(C)(N)C(=O)O

T1: human gastric inhibitory peptide receptor (GIPR) (human, UniProt P48546 22-466)
T1 sequence (looked up): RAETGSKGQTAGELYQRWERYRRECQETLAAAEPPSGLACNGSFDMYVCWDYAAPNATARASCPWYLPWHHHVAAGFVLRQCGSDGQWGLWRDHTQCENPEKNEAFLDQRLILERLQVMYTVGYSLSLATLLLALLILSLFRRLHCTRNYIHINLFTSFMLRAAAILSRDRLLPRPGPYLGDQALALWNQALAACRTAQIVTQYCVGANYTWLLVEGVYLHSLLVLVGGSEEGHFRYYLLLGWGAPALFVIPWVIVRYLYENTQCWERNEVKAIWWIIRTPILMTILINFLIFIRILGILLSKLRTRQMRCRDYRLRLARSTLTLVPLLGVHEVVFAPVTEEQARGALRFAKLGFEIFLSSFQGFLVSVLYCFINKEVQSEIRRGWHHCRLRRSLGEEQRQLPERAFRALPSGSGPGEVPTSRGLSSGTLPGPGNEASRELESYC

B1: Example 296 (peptide)
peptide: Y[Aib]EGTFTSDYSILLDKK([AEEA-AEEA-γGlu-C18 diacid])AQKAFIEYLIEGGPSSG-NH2
modifications: N-terminus assumed
SMILES: CC[C@H](C)[C@H](NC(=O)[C@H](CC(C)C)NC(=O)[C@H](Cc1ccc(O)cc1)NC(=O)[C@H](CCC(=O)O)NC(=O)[C@@H](NC(=O)[C@H](Cc1ccccc1)NC(=O)[C@H](C)NC(=O)[C@H](CCCCN)NC(=O)[C@H](CCC(N)=O)NC(=O)[C@H](C)NC(=O)[C@H](CCCCNC(=O)COCCOCCNC(=O)COCCOCCNC(=O)CC[C@H](NC(=O)CCCCCCCCCCCCCCCCC(=O)O)C(=O)O)NC(=O)[C@H](CCCCN)NC(=O)[C@H](CC(=O)O)NC(=O)[C@H](CC(C)C)NC(=O)[C@H](CC(C)C)NC(=O)[C@@H](NC(=O)[C@H](CO)NC(=O)[C@H](Cc1ccc(O)cc1)NC(=O)[C@H](CC(=O)O)NC(=O)[C@H](CO)NC(=O)[C@@H](NC(=O)[C@H](Cc1ccccc1)NC(=O)[C@@H](NC(=O)CNC(=O)[C@H](CCC(=O)O)NC(=O)C(C)(C)NC(=O)[C@@H](N)Cc1ccc(O)cc1)[C@@H](C)O)[C@@H](C)O)[C@@H](C)CC)[C@@H](C)CC)C(=O)N[C@@H](CCC(=O)O)C(=O)NCC(=O)NCC(=O)N1CCC[C@H]1C(=O)N[C@@H](CO)C(=O)N[C@@H](CO)C(=O)NCC(N)=O
B2: Example 294 (peptide)
peptide: Y[Aib]EGTFTSDYSILLDKK([AEEA-AEEA-γGlu-C18 diacid])AQQAFIEYLIEGG-NH2
modifications: N-terminus assumed
SMILES: CC[C@H](C)[C@H](NC(=O)[C@H](CC(C)C)NC(=O)[C@H](Cc1ccc(O)cc1)NC(=O)[C@H](CCC(=O)O)NC(=O)[C@@H](NC(=O)[C@H](Cc1ccccc1)NC(=O)[C@H](C)NC(=O)[C@H](CCC(N)=O)NC(=O)[C@H](CCC(N)=O)NC(=O)[C@H](C)NC(=O)[C@H](CCCCNC(=O)COCCOCCNC(=O)COCCOCCNC(=O)CC[C@H](NC(=O)CCCCCCCCCCCCCCCCC(=O)O)C(=O)O)NC(=O)[C@H](CCCCN)NC(=O)[C@H](CC(=O)O)NC(=O)[C@H](CC(C)C)NC(=O)[C@H](CC(C)C)NC(=O)[C@@H](NC(=O)[C@H](CO)NC(=O)[C@H](Cc1ccc(O)cc1)NC(=O)[C@H](CC(=O)O)NC(=O)[C@H](CO)NC(=O)[C@@H](NC(=O)[C@H](Cc1ccccc1)NC(=O)[C@@H](NC(=O)CNC(=O)[C@H](CCC(=O)O)NC(=O)C(C)(C)NC(=O)[C@@H](N)Cc1ccc(O)cc1)[C@@H](C)O)[C@@H](C)O)[C@@H](C)CC)[C@@H](C)CC)C(=O)N[C@@H](CCC(=O)O)C(=O)NCC(=O)NCC(N)=O
B3: Example 295 (peptide)
peptide: Y[Aib]EGTFTSDYSILLDKK([AEEA-AEEA-γGlu-C18 diacid])AQHAFIEYLIEGG-NH2
modifications: N-terminus assumed
SMILES: CC[C@H](C)[C@H](NC(=O)[C@H](CC(C)C)NC(=O)[C@H](Cc1ccc(O)cc1)NC(=O)[C@H](CCC(=O)O)NC(=O)[C@@H](NC(=O)[C@H](Cc1ccccc1)NC(=O)[C@H](C)NC(=O)[C@H](Cc1c[nH]cn1)NC(=O)[C@H](CCC(N)=O)NC(=O)[C@H](C)NC(=O)[C@H](CCCCNC(=O)COCCOCCNC(=O)COCCOCCNC(=O)CC[C@H](NC(=O)CCCCCCCCCCCCCCCCC(=O)O)C(=O)O)NC(=O)[C@H](CCCCN)NC(=O)[C@H](CC(=O)O)NC(=O)[C@H](CC(C)C)NC(=O)[C@H](CC(C)C)NC(=O)[C@@H](NC(=O)[C@H](CO)NC(=O)[C@H](Cc1ccc(O)cc1)NC(=O)[C@H](CC(=O)O)NC(=O)[C@H](CO)NC(=O)[C@@H](NC(=O)[C@H](Cc1ccccc1)NC(=O)[C@@H](NC(=O)CNC(=O)[C@H](CCC(=O)O)NC(=O)C(C)(C)NC(=O)[C@@H](N)Cc1ccc(O)cc1)[C@@H](C)O)[C@@H](C)O)[C@@H](C)CC)[C@@H](C)CC)C(=O)N[C@@H](CCC(=O)O)C(=O)NCC(=O)NCC(N)=O
B4: Example 297 (peptide)
peptide: Y[Aib]EGTFTSDYSILLDKK([AEEA-AEEA-γGlu-C18 diacid])AQ[Aib]EFIEYLIAGG-NH2
modifications: N-terminus assumed
SMILES: CC[C@H](C)[C@H](NC(=O)[C@H](CC(C)C)NC(=O)[C@H](Cc1ccc(O)cc1)NC(=O)[C@H](CCC(=O)O)NC(=O)[C@@H](NC(=O)[C@H](Cc1ccccc1)NC(=O)[C@H](CCC(=O)O)NC(=O)C(C)(C)NC(=O)[C@H](CCC(N)=O)NC(=O)[C@H](C)NC(=O)[C@H](CCCCNC(=O)COCCOCCNC(=O)COCCOCCNC(=O)CC[C@H](NC(=O)CCCCCCCCCCCCCCCCC(=O)O)C(=O)O)NC(=O)[C@H](CCCCN)NC(=O)[C@H](CC(=O)O)NC(=O)[C@H](CC(C)C)NC(=O)[C@H](CC(C)C)NC(=O)[C@@H](NC(=O)[C@H](CO)NC(=O)[C@H](Cc1ccc(O)cc1)NC(=O)[C@H](CC(=O)O)NC(=O)[C@H](CO)NC(=O)[C@@H](NC(=O)[C@H](Cc1ccccc1)NC(=O)[C@@H](NC(=O)CNC(=O)[C@H](CCC(=O)O)NC(=O)C(C)(C)NC(=O)[C@@H](N)Cc1ccc(O)cc1)[C@@H](C)O)[C@@H](C)O)[C@@H](C)CC)[C@@H](C)CC)C(=O)N[C@@H](C)C(=O)NCC(=O)NCC(N)=O
B5: Example 288 (peptide)
peptide: Y[Aib]EGTFTSDYSILLDKK([AEEA-AEEA-γGlu-C20 diacid])AQ[Aib]AFIEYLIAGGPSSGAPPPS-NH2
modifications: N-terminus assumed
SMILES: CC[C@H](C)[C@H](NC(=O)[C@H](CC(C)C)NC(=O)[C@H](Cc1ccc(O)cc1)NC(=O)[C@H](CCC(=O)O)NC(=O)[C@@H](NC(=O)[C@H](Cc1ccccc1)NC(=O)[C@H](C)NC(=O)C(C)(C)NC(=O)[C@H](CCC(N)=O)NC(=O)[C@H](C)NC(=O)[C@H](CCCCNC(=O)COCCOCCNC(=O)COCCOCCNC(=O)CC[C@H](NC(=O)CCCCCCCCCCCCCCCCCCC(=O)O)C(=O)O)NC(=O)[C@H](CCCCN)NC(=O)[C@H](CC(=O)O)NC(=O)[C@H](CC(C)C)NC(=O)[C@H](CC(C)C)NC(=O)[C@@H](NC(=O)[C@H](CO)NC(=O)[C@H](Cc1ccc(O)cc1)NC(=O)[C@H](CC(=O)O)NC(=O)[C@H](CO)NC(=O)[C@@H](NC(=O)[C@H](Cc1ccccc1)NC(=O)[C@@H](NC(=O)CNC(=O)[C@H](CCC(=O)O)NC(=O)C(C)(C)NC(=O)[C@@H](N)Cc1ccc(O)cc1)[C@@H](C)O)[C@@H](C)O)[C@@H](C)CC)[C@@H](C)CC)C(=O)N[C@@H](C)C(=O)NCC(=O)NCC(=O)N1CCC[C@H]1C(=O)N[C@@H](CO)C(=O)N[C@@H](CO)C(=O)NCC(=O)N[C@@H](C)C(=O)N1CCC[C@H]1C(=O)N1CCC[C@H]1C(=O)N1CCC[C@H]1C(=O)N[C@@H](CO)C(N)=O
B6: Example 289 (peptide)
peptide: YXEGTFTSDYSIXLDKKAQXEFIEYLIAGGPSSGAPPPS
modifications: Aib2, αMeL13, (2-[2-(2-Amino-ethoxy)-ethoxy]-acetyl)2-(γ-Glu)-CO-(CH2)18-CO2H on K17, Aib20, C-terminal NH2
B7: Example 292 (peptide)
peptide: B6 peptide with Y1X, Y25X
modifications: D-Tyr1, Aib2, αMeL13, (2-[2-(2-Amino-ethoxy)-ethoxy]-acetyl)2-(γ-Glu)-CO-(CH2)18-CO2H on K17, Aib20, αMeY25, C-terminal NH2
B8: Example 291 (peptide)
peptide: B6 peptide with Y1X, K16X, E21A, E24X
modifications: D-Tyr1, Aib2, αMeL13, Orn16, (2-[2-(2-Amino-ethoxy)-ethoxy]-acetyl)2-(γ-Glu)-CO-(CH2)18-CO2H on K17, Aib20, D-Glu24, C-terminal NH2
B9: Example 293 (peptide)
peptide: B6 peptide with Y1X, K16X, Y25X
modifications: D-Tyr1, Aib2, αMeL13, Orn16, (2-[2-(2-Amino-ethoxy)-ethoxy]-acetyl)2-(γ-Glu)-CO-(CH2)18-CO2H on K17, Aib20, αMeY25, C-terminal NH2
B10: Example 290 (peptide)
peptide: B6 peptide with Y1X
modifications: D-Tyr1, Aib2, αMeL13, (2-[2-(2-Amino-ethoxy)-ethoxy]-acetyl)2-(γ-Glu)-CO-(CH2)18-CO2H on K17, Aib20, C-terminal NH2

These binders were tested against T1, human gastric inhibitory peptide … (assay: cell-based or functional assay).

Row | Binder | hGIPR cAMP EC50 ratio | hGIPR cAMP Rel EC50
1 | B1 | 0.564 | 198 pM
2 | B2 | 0.75 | 183 pM
3 | B3 | 0.481 | 281 pM
4 | B4 | 3 | 45.1 pM
5 | B5 | 1.2 | 73.2 pM
6 | B6 | 4.13 | 22.8 pM
7 | B7 | 1.1 | 68.2 pM
8 | B8 | 0.746 | 118 pM
9 | B9 | 1.36 | 56.2 pM
10 | B10 | 1.09 | 62.9 pM

What follows are binders tested against human GLP-1 receptor (GLP-1R) (human, UniProt P43220 24-463) (assay: cell-based or functional assay).

Row | Binder | hGLP1R cAMP EC50 ratio | hGLP1R cAMP Rel EC50
11 | B1 | 0.82 | 86.7 pM
12 | B2 | 0.249 | 185 pM
13 | B3 | 0.398 | 116 pM
14 | B4 | 0.445 | 111 pM
15 | B5 | 0.393 | 172 pM
16 | B6 | 1.33 | 54.4 pM
17 | B7 | 0.143 | 183 pM
18 | B8 | 0.188 | 150 pM
19 | B9 | 0.197 | 132 pM
20 | B10 | 0.279 | 179 pM
